Assay results reported in patent US20230391826A1, “COMPOSITIONS AND METHODS FOR TREATING DISEASES” (Sanford Burnham Prebys Medical Discovery Institute, priority 2020, published 2023).

How the values were obtained:
[1] = biological target: EphA2 endogenously expressed on PC3 prostate cancer cells (UniProt P29317); assay: cell-based or functional assay
[2] = biological target: EphA2 extracellular domain fused to the Fc portion of an antibody (EphA2-Fc); assay: ELISA, inhibition of ephrinA5-AP binding to immobilized EphA2-Fc; representative experiment, triplicates
[3] = biological target: EphA2 extracellular domain fused to the Fc portion of an antibody (EphA2-Fc); assay: ELISA, inhibition of ephrinA5-AP binding to immobilized EphA2-Fc

Chain of EphA2 endogenously expressed on PC3 prostate cancer cells (P29317 24-976 limits assumed): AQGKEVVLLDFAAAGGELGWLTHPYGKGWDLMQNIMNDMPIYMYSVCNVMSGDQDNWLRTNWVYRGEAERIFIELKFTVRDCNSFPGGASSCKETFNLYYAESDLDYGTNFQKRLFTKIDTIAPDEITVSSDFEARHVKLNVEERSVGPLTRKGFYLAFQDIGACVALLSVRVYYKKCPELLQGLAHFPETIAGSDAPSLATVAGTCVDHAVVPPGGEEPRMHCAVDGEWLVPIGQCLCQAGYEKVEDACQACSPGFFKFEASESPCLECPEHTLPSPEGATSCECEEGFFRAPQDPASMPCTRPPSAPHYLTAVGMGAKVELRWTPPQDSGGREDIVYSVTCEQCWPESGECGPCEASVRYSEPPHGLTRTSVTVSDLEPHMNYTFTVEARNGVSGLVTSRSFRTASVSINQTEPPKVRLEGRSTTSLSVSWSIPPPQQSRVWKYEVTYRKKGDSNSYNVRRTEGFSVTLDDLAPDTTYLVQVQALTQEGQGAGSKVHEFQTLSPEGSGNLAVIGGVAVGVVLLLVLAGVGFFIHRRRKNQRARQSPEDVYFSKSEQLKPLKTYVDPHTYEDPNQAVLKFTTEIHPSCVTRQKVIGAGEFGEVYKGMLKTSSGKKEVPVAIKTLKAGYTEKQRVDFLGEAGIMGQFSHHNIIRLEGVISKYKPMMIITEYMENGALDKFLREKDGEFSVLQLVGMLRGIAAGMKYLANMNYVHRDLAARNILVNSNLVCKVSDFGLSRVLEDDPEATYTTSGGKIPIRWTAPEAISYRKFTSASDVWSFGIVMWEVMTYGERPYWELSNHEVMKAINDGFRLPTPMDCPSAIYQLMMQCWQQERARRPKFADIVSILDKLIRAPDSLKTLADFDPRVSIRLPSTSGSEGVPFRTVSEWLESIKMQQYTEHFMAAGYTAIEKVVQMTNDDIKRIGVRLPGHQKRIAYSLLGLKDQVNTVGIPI
Chain of m-ephrinA1 (monomer) (ligand) (P20827 19-182): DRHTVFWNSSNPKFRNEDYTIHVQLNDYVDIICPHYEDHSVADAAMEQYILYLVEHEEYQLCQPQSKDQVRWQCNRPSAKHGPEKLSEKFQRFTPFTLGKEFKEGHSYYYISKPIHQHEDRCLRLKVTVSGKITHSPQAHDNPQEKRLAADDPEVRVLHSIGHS

Row | Substance | Blig (bias factor) [1] | EC50 PY588 [1] [nM] | EC50 pAKT inhib [1] [µM] | EC50 pY588 [1] [µM] | Emax PY588 (normalized to ephrinA1-Fc) [1] | Etop pAKT inhib [1] | Etop pY588 (normalized to ephrinA1-Fc) [1] | IC50 PAKT [1] [nM] | βlig (bias factor) [1] | IC50 [2] [nM] | IC50 [3] [nM]
1 | m-ephrinA1 (monomer) (ligand) | 0.3 | 28 | 0.027 | 0.074 | 0.74 | 1 | 0.36 | 13 | 0.54 | 19 | 21
2 | CGA-WLA-YRPKam dimer (N-ter) (peptide) | – | – | – | – | – | – | – | – | – | 0.49 | 0.4
3 | ephrinA1-Fc (dimer) (Fc fusion) | 0 | 0.81 | 0.0017 | 0.0038 | 1 | 1 | – | 0.62 | 0 | – | –
